Key:
human GPRC5D [1] = biological target: T1, human GPRC5D (human, UniProt Q9NZD1 1-345); experiment: cell-based or functional assay
human GPRC5D [2] = biological target: T1, human GPRC5D; experiment: flow cytometry on NCI-H929 cells expressing human GPRC5D
Method: To measure the binding to GPRC5D, we performed a flow cytometry-based binding assay on reported multiple myeloma cell lines (Lombardi et al., Molecular characterization of human multiple myeloma cell lines by integrative genomics: insights into the biology of the disease; Genes Chromosomes Cancer. 2007 March; 46(3):226-38.). The cell line NCI-H929 (ATCC® CRL-9068) was cultured in RPMI 1640 with Glutamax medium (Gibco) supplemented with 10% FBS, 1× Penicillin/Streptomycin (Gibco), lx Sodium Pyruvate (Gibco) and 50 μM beta-mercaptoethanol (Gibco).
0.1 Mio cells per well of a 96-round-bottom-well plate were incubated with 150 nM to 15 fM (serial dilutions of 1:10) of the indicated GPRC5D IgG constructs 5E11g2 and 5F11g2 or no construct for 30 min at 4° C. […] After two final washing steps, flow cytometric acquisition was performed on a custom-designed BD Biosciences Fortessa and analyzed using BD Diva. EC50 values were calculated, using GraphPad Prism software. […] None of the antibodies reaches saturation in the assessed concentration range.

human GPRC5D [3] = biological target: T1, human GPRC5D; experiment: cell-based or functional assay; remark: listed apart in the source
human GPRC5D [4] = biological target: T1, human GPRC5D; experiment: cell-based or functional assay; remark: listed apart in the source
[5] = biological target: T2, B-cell maturation antigen (BCMA) (UniProt Q02223 1-184, limits assumed); experiment: cell-based or functional assay
T2 sequence (looked up): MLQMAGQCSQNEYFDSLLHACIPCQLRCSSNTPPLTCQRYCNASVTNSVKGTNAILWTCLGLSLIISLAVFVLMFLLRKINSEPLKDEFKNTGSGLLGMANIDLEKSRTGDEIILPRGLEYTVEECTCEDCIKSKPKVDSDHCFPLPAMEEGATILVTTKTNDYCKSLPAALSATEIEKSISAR

T1 sequence (Q9NZD1 whole entry): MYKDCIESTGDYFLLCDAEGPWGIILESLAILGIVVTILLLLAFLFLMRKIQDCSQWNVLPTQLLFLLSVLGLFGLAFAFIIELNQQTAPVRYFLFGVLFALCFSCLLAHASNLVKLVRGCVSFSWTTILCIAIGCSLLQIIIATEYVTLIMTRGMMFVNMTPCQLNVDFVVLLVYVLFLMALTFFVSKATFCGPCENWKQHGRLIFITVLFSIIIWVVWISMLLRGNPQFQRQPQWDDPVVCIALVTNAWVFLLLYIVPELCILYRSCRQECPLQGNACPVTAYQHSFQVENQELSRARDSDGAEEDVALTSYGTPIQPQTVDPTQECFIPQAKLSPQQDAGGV

Binder	EC50 of GPRC5D-IgG induced tumor cell lysis (ADCC, LDH release), AMO-1 (human GPRC5D [1])	EC50 of GPRC5D-IgG induced tumor cell lysis (ADCC, LDH release), NCI-H929 (human GPRC5D [1])	EC50 of T cell mediated killing, AMO-1 cells (LDH release) (human GPRC5D [3])	EC50 of T cell mediated killing, L363 cells (LDH release) (human GPRC5D [3])	EC50 of T cell mediated killing, NCI-H929 cells (LDH release) (human GPRC5D [3])	EC50 of T cell mediated killing, RPMI-8226 cells (LDH release) (human GPRC5D [3])	EC50 of in vitro killing, AMO-1 (human GPRC5D [4])	EC50 of in vitro killing, EJM (human GPRC5D [4])	EC50 of in vitro killing, L363 (human GPRC5D [4])	EC50 of in vitro killing, MOLP-2 (human GPRC5D [4])	EC50 of in vitro killing, NCI-H929 (human GPRC5D [4])	EC50 of in vitro killing, OPM-2 (human GPRC5D [4])	EC50 of in vitro killing, RPMI (human GPRC5D [4])	also measured
5E11g2 (antibody, human IgG1, kappa, V domains shown, Glyco-engineered human IgG1 (GlycoMab technology); afucosylation degree 59.1%; also called BSH-5E11-G7 hu IgG1 G2) VH: ELQLEQSGGGLVQPGGSLTLSCAASGFTFSKYAMAWVRQAPTKGLEWVASISTGGVNTYYRDSVKARFTISRDNAKNTQYLQMDSLRSEDTATYYCATHTGDYFDYWGQGVMVTVSS VL: DIVLTQSPALAVSPGQRATISCRASQSVSISGINLMNWYQQKPGQQPKLLIYHASILASGIPTRFSGSGSGTDFTLTIDPVQADDIATYYCQQTRESPLTFGSGTNLEIKR	0.405 nM	0.084 nM	–	–	–	–	–	–	–	–	–	–	–	EC50 (human GPRC5D [2]): ~69.5 nM
5E11-TCB (bispecific antibody, human IgG1, kappa, L234A L235A) light 1: DIVLTQSPALAVSPGQRATISCRASQSVSISGINLMNWYQQKPGQQPKLLIYHASILASGIPTRFSGSGSGTDFTLTIDPVQADDIATYYCQQTRESPLTFGSGTNLEIKRTVAAPSVFIFPPSDRKLKSGTASVVCLLNNFYPREAKVQWKVDNALQSGNSQESVTEQDSKDSTYSLSSTLTLSKADYEKHKVYACEVTHQGLSSPVTKSFNRGEC light 2: EVQLLESGGGLVQPGGSLRLSCAASGFTFSTYAMNWVRQAPGKGLEWVSRIRSKYNNYATYYADSVKGRFTISRDDSKNTLYLQMNSLRAEDTAVYYCVRHGNFGNSYVSWFAYWGQGTLVTVSSASVAAPSVFIFPPSDEQLKSGTASVVCLLNNFYPREAKVQWKVDNALQSGNSQESVTEQDSKDSTYSLSSTLTLSKADYEKHKVYACEVTHQGLSSPVTKSFNRGEC heavy 1: ELQLEQSGGGLVQPGGSLTLSCAASGFTFSKYAMAWVRQAPTKGLEWVASISTGGVNTYYRDSVKARFTISRDNAKNTQYLQMDSLRSEDTATYYCATHTGDYFDYWGQGVMVTVSSASTKGPSVFPLAPSSKSTSGGTAALGCLVEDYFPEPVTVSWNSGALTSGVHTFPAVLQSSGLYSLSSVVTVPSSSLGTQTYICNVNHKPSNTKVDEKVEPKSCDKTHTCPPCPAPEAAGGPSVFLFPPKPKDTLMISRTPEVTCVVVDVSHEDPEVKFNWYVDGVEVHNAKTKPREEQYNSTYRVVSVLTVLHQDWLNGKEYKCKVSNKALGAPIEKTISKAKGQPREPQVCTLPPSRDELTKNQVSLSCAVKGFYPSDIAVEWESNGQPENNYKTTPPVLDSDGSFFLVSKLTVDKSRWQQGNVFSCSVMHEALHNHYTQKSLSLSPGK heavy 2: not shown	–	–	0.014 nM	0.012 nM	0.007 nM	0.024 nM	0.008 nM	0.011 nM	0.017 nM	0.018 nM	0.007 nM	0.002 nM	0.064 nM	–
BCMA-TCB (bispecific antibody, human IgG1, kappa, L234A L235A) heavy 1: EVQLLESGGGLVQPGGSLRLSCAASGFTFSSYAMNWVRQAPGKGLEWVSAITASGGSTYYADSVKGRFTISRDNSKNTLYLQMNSLRAEDTAVYYCARYWPMSLWGQGTLVTVSSASTKGPSVFPLAPSSKSTSGGTAALGCLVEDYFPEPVTVSWNSGALTSGVHTFPAVLQSSGLYSLSSVVTVPSSSLGTQTYICNVNHKPSNTKVDEKVEPKSCDKTHTCPPCPAPEAAGGPSVFLFPPKPKDTLMISRTPEVTCVVVDVSHEDPEVKFNWYVDGVEVHNAKTKPREEQYNSTYRVVSVLTVLHQDWLNGKEYKCKVSNKALGAPIEKTISKAKGQPREPQVCTLPPSRDELTKNQVSLSCAVKGFYPSDIAVEWESNGQPENNYKTTPPVLDSDGSFFLVSKLTVDKSRWQQGNVFSCSVMHEALHNHYTQKSLSLSPGK light 1: EIVLTQSPGTLSLSPGERATLSCRASQSVSAYYLAWYQQKPGQAPRLLMYDASIRATGIPDRFSGSGSGTDFTLTISRLEPEDFAVYYCQQYERWPLTFGQGTKVEIKRTVAAPSVFIFPPSDRKLKSGTASVVCLLNNFYPREAKVQWKVDNALQSGNSQESVTEQDSKDSTYSLSSTLTLSKADYEKHKVYACEVTHQGLSSPVTKSFNRGEC heavy 2: not shown light 2: EVQLLESGGGLVQPGGSLRLSCAASGFTFSTYAMNWVRQAPGKGLEWVSRIRSKYNNYATYYADSVKGRFTISRDDSKNTLYLQMNSLRAEDTAVYYCVRHGNFGNSYVSWFAYWGQGTLVTVSSASVAAPSVFIFPPSDEQLKSGTASVVCLLNNFYPREAKVQWKVDNALQSGNSQESVTEQDSKDSTYSLSSTLTLSKADYEKHKVYACEVTHQGLSSPVTKSFNRGEC	–	–	–	–	–	–	–	–	–	–	–	–	–	EC50 of in vitro killing, AMO-1 [5]: 0.518 nM; EC50 of in vitro killing, EJM [5]: 0.132 nM; EC50 of in vitro killing, L363 [5]: 0.127 nM; EC50 of in vitro killing, MOLP-2 [5]: 0.032 nM; EC50 of in vitro killing, NCI-H929 [5]: 0.311 nM; EC50 of in vitro killing, OPM-2 [5]: 0.033 nM; EC50 of in vitro killing, RPMI [5]: 0.011 nM
5F11-TCB (bispecific antibody, human IgG1, kappa, L234A L235A) light 1: DIVMTQAPLSVSVTPGESASISCRSSKSLLHSNGITYVYWYFQKPGKSPQVLIYRMSNLASGVPDRFSGSGSETDFTLKISRVEAEDVGIYHCGQLLENPYTFGAGTELELKRTVAAPSVFIFPPSDRKLKSGTASVVCLLNNFYPREAKVQWKVDNALQSGNSQESVTEQDSKDSTYSLSSTLTLSKADYEKHKVYACEVTHQGLSSPVTKSFNRGEC light 2: EVQLLESGGGLVQPGGSLRLSCAASGFTFSTYAMNWVRQAPGKGLEWVSRIRSKYNNYATYYADSVKGRFTISRDDSKNTLYLQMNSLRAEDTAVYYCVRHGNFGNSYVSWFAYWGQGTLVTVSSASVAAPSVFIFPPSDEQLKSGTASVVCLLNNFYPREAKVQWKVDNALQSGNSQESVTEQDSKDSTYSLSSTLTLSKADYEKHKVYACEVTHQGLSSPVTKSFNRGEC heavy 1: EVQLVESGGGLVQPGRSLKLSCAASGFSFSNYGMAWVRQAATKGLEWVASISTGGGNTYYRDSVKGRFIVSRDNAKNTQYLQMDSLRSEDTATYYCTRHDRGGLYWGQGVMVTVSSASTKGPSVFPLAPSSKSTSGGTAALGCLVEDYFPEPVTVSWNSGALTSGVHTFPAVLQSSGLYSLSSVVTVPSSSLGTQTYICNVNHKPSNTKVDEKVEPKSCDKTHTCPPCPAPEAAGGPSVFLFPPKPKDTLMISRTPEVTCVVVDVSHEDPEVKFNWYVDGVEVHNAKTKPREEQYNSTYRVVSVLTVLHQDWLNGKEYKCKVSNKALGAPIEKTISKAKGQPREPQVCTLPPSRDELTKNQVSLSCAVKGFYPSDIAVEWESNGQPENNYKTTPPVLDSDGSFFLVSKLTVDKSRWQQGNVFSCSVMHEALHNHYTQKSLSLSPGK heavy 2: not shown	–	–	0.003 nM	0.001 nM	0.001 nM	0.002 nM	0.006 nM	0.003 nM	0.003 nM	0.001 nM	0.004 nM	0.001 nM	0.006 nM	–
5F11g2 (antibody, human IgG1, kappa, V domains shown) VH: EVQLVESGGGLVQPGRSLKLSCAASGFSFSNYGMAWVRQAATKGLEWVASISTGGGNTYYRDSVKGRFIVSRDNAKNTQYLQMDSLRSEDTATYYCTRHDRGGLYWGQGVMVTVSS VL: DIVMTQAPLSVSVTPGESASISCRSSKSLLHSNGITYVYWYFQKPGKSPQVLIYRMSNLASGVPDRFSGSGSETDFTLKISRVEAEDVGIYHCGQLLENPYTFGAGTELELKR	0.096 nM	0.048 nM	–	–	–	–	–	–	–	–	–	–	–	–
